Source: the MegaScale stability set (Tsuboyama et al. 2023)

B1: HEEH_KT_rd6_0007 (parent)
chain: SIEEEIKKAEEAKEKGKTFIHGDFVATTEELLDELLKRLRKKL
B2: EHEE_rd2_0191 (parent)
chain: TTEYTFTDDEEARRAIEELKKRGLTFRYEKHGTTWRVRVD

Variants of: B1
Test: folding stability dG (cDNA display proteolysis); higher = more stable
Conditions: PBS, room temperature

Folding stability dG [kcal/mol] of substitutions, site by site:
K42: T 1.19, R 1.34, L 1.82, Q 1.42, N 0.7, S 1.13, Y 1.5, M 1.74, V 1.23, P 0.483, W 1.83
L43: Q 0.837, F 1.05, K 0.822, T 0.533, W 1.06, C 1.31, S 0.524, G 0.444, N 0.566, V 0.562, A 0.591, E 0.224, M 0.858, P 0.431, H 0.788, R 1.14, D 0.207, I 0.768, Y 0.992

Variants of: B2
Test: as above
Conditions: PBS, room temperature

Folding stability dG [kcal/mol] of substitutions, site by site:
E3: N 1.39, Y 2.62, Q 1.47, L 2.25, G 0.724, D 1.58, W 3.02, S 1.55, F 2.44, I 2.52, K 0.77, P 0.266, A 1.12, M 2.14, R 1.12, H 1.73, C 2.81, T 2.31, V 2.56
E18: G 1.74, T 1.84, Y 2.29, A 2.01, I 2.15, D 2.03, N 1.9, M 2.11, R 1.7, V 1.96, Q 1.97, H 1.86, K 1.74, S 1.99, F 2.12, L 2.08, W 2.69
R14: L 1.91, W 1.68, K 2.12, A 2.1, S 1.75, M 1.97, E 1.7, G 1.35, D 1.45, Q 1.9, T 1.73, Y 1.64, N 1.84, F 1.64, I 1.93, H 1.82, V 1.78
T5: N 1.36, C 2.33, L 2.25, K 1.3, S 1.49, V 2.54, Q 1.64, A 1.23, W 2.68, G 0.086, D 0.819, E 1.79, I 2.71, H 1.67, R 1.64, M 1.95, F 2.51, Y 2.39
D9: Y 2.39, M 1.83, V 2, E 2.41, L 1.91, R 1.92, Q 1.8, P 2.3, T 1.3, N 1.63, A 2.15, K 1.77, I 2.08, H 1.73, S 1.81, F 2.33, G 1.81, W 3.27
T2: I 2.5, G 1.42, W 2.62, K 2.01, P 0.931, F 2.33, S 1.68, Q 2, N 1.58, V 2.4, H 2.08, L 2.3, M 2.2, A 1.82, Y 2.41, R 2.27, E 1.76, C 2.9, D 1.35
D8: Q 1.16, W 0.65, K 1.37, G 1.33, V 1.36, A 1.24, M 0.896, E 1.29, I 1.2, S 2.44, N 2.41, Y 0.721, L 1.08, H 1.32, T 2.29, F 0.882, R 1.39
F6: M -0.111, W 0.741, G -0.522, Y 1.96, T -0.433, L 0.168, I 0.614
I16: W 0.024, G -0.247, T -0.106, F 1.37, C 1.58, A -0.729, L 1.64, M 2.23, N 0.255, Y -0.65, V 1.12
T7: S 1.75, N 1.97, H 2.13, V 1.71, C 2.34, E 2.07, Y 2.47, F 2.22, W 1.89, K 1.62, P 0.677, I 1.68, M 1.82, L 1.83, G 1.37, Q 1.88, D 1.97, R 1.59, A 1.63
A12: I 0.942, L 2.53, S -0.064, V 1.47, T 0.424, Q -0.999, F 3.56, K -0.512, R -0.372, G 1.04, W 1.63, Y 1.66, C 2.13, M 2.33, H 0.073
T1: N 1.62, H 2.1, M 2.21, W 3.2, V 2.44, F 2.69, I 2.44, Y 2.93, A 2.06, S 2.05, R 1.87, Q 2.04, D 1.75, G 1.95, P 2.15, L 2, K 1.78, E 1.93
E10: H 1.93, V 2.02, I 2, N 2.12, W 1.93, Q 1.95, A 2.09, K 1.98, F 1.98, G 2.07, T 2.02, L 1.98, P 0.527, M 1.96, Y 1.96, D 2.15, S 1.87, R 1.99
L19: I 1.55, F 2.64, A 0.832, V 0.238, M 1.73
A15: H 1.73, E 0.719, V 2.36, I 2.02, R 1.08, M 2.85, Y 2.87, K 1.97, C 3.17, F 4.89, L 2.63, G 1.06, W 2.9, Q 1.29, S 1.07, T 1.94, N 0.878
E11: W 1.5, F 1.37, A 2.16, L 1.84, K 1.73, Y 1.29, H 1.77, R 1.54, N 1.56, Q 2.1, S 2.43, I 1.78, D 1.88, P 0.754, T 2.31, C 2.14, V 1.85, M 2.02, G 1.46
E17: T 1.89, G 1.71, F 1.97, S 1.97, N 2.02, H 1.88, R 2.23, A 2.25, L 2.11, I 2.01, W 2.07, Q 2.04, Y 2.02, K 2, M 2.1, V 1.83, D 1.95
Y4: E -0.036, Q 0.601, L 1.93, T 0.315, W 2.22, N -0.571, M 1.79, S 0.036, I 1.44, C 2.79, K 0.122, V 0.805, F 1.99, A 0.059, R 0.382, H 0.788
R13: I 2.1, E 1.79, F 2.31, L 2.3, Q 1.94, M 2.42, Y 2.2, D 0.9, H 1.98, N 1.68, A 1.85, S 1.55, V 1.69, T 1.83, K 2.04, G 1.44, W 2.52
